Article doi:10.1101/2025.11.26.690709, “Domain-specific decoupling of co-chaperone and ligase functions in STUB1 underlies biochemical and clinical heterogeneity in SCA48” (bioRxiv, 2025)

B1: CHIP P228S, recombinant, C-terminal His tag (natural protein, human, UniProt Q9UNE7-1 1-303, looked up)
chain: MKGKEEKEGGARLGAGGGSPEKSPSAQELKEQGNRLFVGRKYPEAAACYGRAITRNPLVAVYYTNRALCYLKMQQHEQALADCRRALELDGQSVKAHFFLGQCQLEMESYDEAIANLQRAYSLAKEQRLNFGDDIPSALRIAKKKRWNSIEERRIHQESELHSYLSRLIAAERERELEECQRNHEGDEDDSHVRAQQACIEAKHDKYMADMDELFSQVDEKRKKRDISDYLCGKISFELMREPCITPSGITYDRKDIEEHLQRVGHFDPVTRSPLTQEQLIPNLAMKEVIDAFISENGWVEDY
notes: CHIP (STUB1), SCA48-associated U-box mutation P228S
B2: CHIP R225*, recombinant (natural protein, human, UniProt Q9UNE7-1 1-303, looked up)
chain: MKGKEEKEGGARLGAGGGSPEKSPSAQELKEQGNRLFVGRKYPEAAACYGRAITRNPLVAVYYTNRALCYLKMQQHEQALADCRRALELDGQSVKAHFFLGQCQLEMESYDEAIANLQRAYSLAKEQRLNFGDDIPSALRIAKKKRWNSIEERRIHQESELHSYLSRLIAAERERELEECQRNHEGDEDDSHVRAQQACIEAKHDKYMADMDELFSQVDEKRKK

Target: the molecule itself
Assay: mass photometry; Refeyn OneMP; CHIP at 50 nM final in 20 mM HEPES pH 8.0, 200 mM NaCl; self-association of CHIP (dimer, tetramer, hexamer, octamer, high MW)

| Protein | binding result | stoichiometry N |
| --- | --- | --- |
| B1 | binds |  |
| B2 |  | 2 |
